Source: patent US20080305111A1, “Anti-C35 antibodies for treating cancer” (VACCINEX, INC., priority 2006, published 2008)
“Also recorded” adds a separate entry of the source.

T1: C35 (Homo sapiens, UniProt Q9BRT3)
T1 sequence (Q9BRT3 1-115): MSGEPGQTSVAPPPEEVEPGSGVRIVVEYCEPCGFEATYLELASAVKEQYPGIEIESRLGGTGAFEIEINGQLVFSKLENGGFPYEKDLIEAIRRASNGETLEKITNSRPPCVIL

T2: recombinant human C35 (rhC35) (Homo sapiens, UniProt Q9BRT3)
T2 construct: made in house; host or cells: E. coli
T2 sequence (Q9BRT3 1-115): T1 sequence (Q9BRT3 1-115)

T3: rC35 (Homo sapiens, UniProt Q9BRT3)
T3 construct: made in house; host or cells: E. coli
T3 sequence (Q9BRT3 1-115): T1 sequence (Q9BRT3 1-115)

B1: 1F2: mouse monoclonal anti-C35 antibody from hybridoma 1F2.4.1, gamma1 isotype, kappa light chain (SEQ ID NO:4, 6) (antibody, V domains shown)
VH: DVQLQESGPGLVKPSQSLSLTCSVTGYSITSGYFWNWIRQFPGNKLEWMGYISYDGSNNSNPSLKNRISFTRDTSKNQFFLKFNSVTTDDSAAYYCTRGTTGFAYWGQGTLVTVSA
VL: QIVLTQSPAIMSASPGEKVTISCSASSSVSYMNWYQQKPGSSPKPWIYHTSNLASGVPARFSGSGSGTSYSLTISSMEAEDAATYYCQQYHSYPPTFGGGTKLEIK
B2: 1B3: mouse monoclonal anti-C35 antibody from hybridoma 1B3.6.1, gamma1 isotype, kappa light chain (SEQ ID NO:8, 10) (antibody, V domains shown)
VH: EVQLQESGPSLVKPSQTLSLTCSVTGDSITSGYWNWIRKFPGNKLEYVGYISYSGGTYYNPSLKSRISITRDTSKNHYYLQLNSVTTEDTATYYCARGAYYGGAFFPYFDVWGAGTTVTVSS
VL: DVQITQSPSFLAASPGETITINCRASKYISKHLVWYQEKPGETKKLLIYSGSTLQSGLPSRFSGSGSGTDFTLTISSLEPEDFAMYYCQQHNEYPLTFGAGTKLELK
B3: MAb 163: fully human C35-specific antibody; VH from clone H730 (SEQ ID NO:62), VL from clone L74 (SEQ ID NO:66) (antibody, V domains shown)
VH: EVQLVESGGGLVKPGGSLRLSCEVSGITFSNAWMSWVRQAPGKGLEWVGRIKSKTDGGTTDYAAPVKGRFTISRDDSKNTLYLQMNSLKTEDTAVYYCSIGYYYDSSFKYGMDVWGQGTTVTVSS
VL: DIQMTQSPATLSASVGDRVTITCRASQSISRWLAWYQQKPGQAPKVLIYKASTLQSGVPSRFSGSGSGTEFSLTINSLQPDDFATYYCQQYYSYLRTFGQGTKLEIK
modifications: VH of MAb163 (H730); VL of MAb163 (L74)

What was measured:
[1] = test system: C35-positive MDA231 tumor cells; assay: Two C35 antibodies and paclitaxel in MDA231 xenograft (FIG. 12); format: in vivo, Swiss nude mice; settings: antibody 20 mg/kg i.v. twice weekly for three weeks, paclitaxel 30 mg/kg i.p. days 17 and 24
Description: As illustrated in FIG. 12 and described in this example, methods of treating cancer directed to the administration of two C35 antibodies in combination with a chemotherapeutic agent were tested. Five million C35-positive MDA231 tumor cells were implanted subcutaneously in the mammary fat pads of Swiss nude mice. Groups of at least five mice each received the following treatments, beginning on day 17 post-graft: • 1. No Treatment (Control Group) • 2. 30 mg/kg i.p. injection of paclitaxel on days 17 and 24. • 3. 30 mg/kg i.p. injection of paclitaxel on days 17 and 24, together with 400 μg per i.v. injection (20 mg/kg) of 1F2 murine monoclonal antibody starting on day 17 and continuing twice weekly for three weeks. • 4. 30 mg/kg i.p. injection of paclitaxel on days 17 and 24, together with 400 μg per i.v. injection (20 mg/kg) of […] murine monoclonal antibody starting on day 17 and continuing twice weekly for three weeks. • 5. […]
Average mouse tumor volume was measured at various time points post-graft. Two measurements were taken with vernier calipers on each tumor; tumor volume was calculated using the formula (length×width^2)/2. […]

C35 [2] = target: T1, C35; assay: Characterisation of hybridoma antibodies (ELISA, Western blot, immunohistochemistry, competitive binding ELISA); settings: for binding to recombinant C35 protein: ELISA and Western Blot
Description: Hybridoma cell lines 1F2.4.1 and 1B3.6.1, specific for C35 polypeptides, were prepared using hybridoma technology. (Kohler et al., Nature 256:495 (1975); Kohler et al., Eur. J. Immunol. 6:511 (1976); Kohler et al., Eur. J. Immunol. 6:292 (1976); Hammerling et al., in: Monoclonal Antibodies and T-Cell Hybridomas, Elsevier, N.Y., pp. 571-681 (1981)). Briefly, hybridoma cell lines were generated using standard PEG fusion to the non-secreting myeloma cell line NS-1 (P3/NS1/1-AG4-1, ATCC #TIB-18) of splenocytes from BALB/c mice immunized with syngeneic BCA34 fibroblast tumor cells transduced to over express C35. Following PEG fusion to NS-1, the hybridomas were grown in methylcellulose semi-solid media. Approximately 2 weeks later, hybridoma colonies were isolated into 96 well plates and individual supernatants were tested for reactivity with C35 by ELISA, Western blot, and immunohistochemistry. Positive hybridoma colonies were subcloned and screened for reactivity twice to ensure clonality. Antibodies were isolated from hybridoma supernatants by protein G affinity purification using standard methods. […] In addition, the present inventors developed intracellular staining flow cytometry assays for quantitative analysis using antibodies from hybridoma cell line 1F2 conjugated to Alexa-647 fluorochrome. Each of these antibodies is distinct, yet both are specific for C35 protein. It is possible to immunoprecipitate C35 protein from cell lysates with either of these antibodies and detect with the other.

[3] = target: T2, recombinant human C35 (rhC35); assay: Epitope mapping by Lys-C digestion of rhC35 and Western blot; format: binding; settings: residues numbered from amino terminal methionine of native human C35
From the text: To localize the epitope specificity of 1B3 and 1F2 antibodies, recombinant human C35 (rhC35) synthesized with a 6×His tag in E. coli was digested with Lys-C endoproteinase. This enzyme cuts after lysine (K) residues in the protein sequence. […] The full sequence of rhC35, including the amino terminal 6×His tag addition is shown. Amino acid positions are numbered relative to the amino terminal methionine (M) of the native human sequence. Note that digestion at the first and third lysine followed by negatively charged residues is inefficient and some longer combination fragments may be generated. Lys-C endoproteinase was added to purified rhC35 at a 50:1 weight ratio and incubated for 18 hours at 37° C. in 25 mM Tris, pH 8.0. The digest was ethanol precipitated and resolubilized in reducing Tricine sample buffer. […] Peptides were transferred to PVDF membranes and the blots depicted in FIG. 10 were either stained with Coomassie blue (lanes 1-3 of both left and right panels) to detect all peptides or processed with one of the following: 1 μg/ml of the murine 1F2 anti-C35 antibody followed by alkaline phosphatase conjugated goat anti-mouse antibody (lane 4 of left panel); 1 μg/ml of the 1B3 anti-C35 immunoglobulin variable regions linked to human constant regions (MAb11) followed by alkaline phosphatase conjugated goat anti-human antibody (lane 5 of left panel); or anti-6×His tag mouse antibody (Amersham) followed by alkaline phosphatase conjugated goat anti-mouse antibody (lane 4 and 5 of right panel). BCIP/NBT substrate was added and developed to detect the secondary reagents. Molecular weight markers are indicated in the flanking lanes of both panels.
In FIG. 10, the indicated band A migrates at the position of undigested rhC35. Note that band B stains with 1F2 but not MAb11 (1B3) anti-C35 antibody while band C stains with neither 1F2 nor MAb11 (1B3) antibody. Since bands B and C both do stain with anti-6×His tag antibody to the 6×His tag at the amino terminus of rhC35, it may be concluded that both fragments lack C-terminal peptide fragments. […]

rC35 = target: T3, rC35; assay: Biacore affinity testing of MAb 163 (1:1 kinetic model); format: binding
Description: To measure affinity using Biacore, a CM5 chip surface was prepared by immobilizing Goat Anti-Human IgG Fc through amine coupling. The monoclonal human antibody MAb 163 was then captured by flow over the chip containing the Goat Anti-Human IgG. The rC35 was then serial diluted into two separate series to cover a wide range of concentration points and binding efficiencies, and then the C35 was allowed to flow over the chip containing bound MAb 163. The binding was recorded in a series of sensograms. The binding was evaluated using BIAevaluation software, where the Ka and Kd were calculated by fitting the curves and correcting for Mass Transfer.

C35-negative H16N2 cells = assay: Immunofluorescence staining (FMAT), C35-negative cells; format: cell-based, human; settings: MAb163 at 3, 1, 0.3 or 0.1 μg/ml
C35 [4] = target: T1, C35; assay: Immunoprecipitation of C35 from 21MT1-D cell lysates; format: binding; design: endogenous in cells; host or cells: 21MT1-D human breast tumor cell line; settings: detected with rabbit anti-C35 polyclonal sera; IgG negative control did not
Description: The number “15” indicates the molecular weight marker at 15 kDalton. The number “163” indicates the mAb163 monoclonal antibody. “Neg IgG” indicates an IgG negative control antibody.
Briefly, 10 ml of MAb163 in CHO cell supernatant was buffer-exchanged into PBS and concentrated to 1 ml. Concentrated MAb 163 was added to protein A beads for greater than one hour. After washing, protein A/MAb163 was added to C35-positive 21MT1-D cell lysates for 2 hours. After washing the beads, the protein was eluted with reducing sample buffer at 100° C.
Immunoprecipitated samples were analyzed by Western blot using rabbit anti-C35 polyclonal sera. As shown in the left lane of FIG. 22, lysate from 100,000 21MT1-D cells was included on the Western blot as a control. The number “15” in FIG. 22 indicates a molecular weight marker at 15 kDalton.

C35 [5] = target: T1, C35; assay: Western blot, tumor specific binding of MAb 163; design: endogenous in cells; host or cells: 21MT1-D human breast tumor cell line
[6] = test system: C35-positive 21MT1-D cells; assay: Immunofluorescence staining (FMAT), C35-positive cells; format: cell-based, human; settings: MAb163 at 3, 1, 0.3 or 0.1 μg/ml

Molecule	tumor growth, one antibody with paclitaxel [1]	competitive binding ELISA (C35 [2])	binding to recombinant C35 protein (C35 [2])	immunohistochemistry staining (C35 [2]; formalin fixed, paraffin embedded)	epitope specificity [3]	KA (rC35; BIAevaluation, 1:1 kinetic model) [M⁻¹]	ka (rC35; MAb 163 captured on anti-human IgG Fc CM5 chip, rC35 in flow) [M⁻¹ s⁻¹]	immunofluorescence staining (C35-negative H16N2 cells)	immunoprecipitation of C35 (C35 [4])	binding in Western blot, tumor cell lysate (C35 [5]; 21MT1-D human breast tumor cell lysate, MAb163 4.4 ug/ml)	binding in Western blot, normal cell line (C35 [5]; H16N2 normal immortalized human breast cell line lysate)	binding in Western blot, recombinant C35 (C35 [5]; rC35 purified from E. coli, 100 ng/lane)	immunofluorescence staining [6]
B1	neither the 1F2 nor 1B3 administered individually with the chemotherapeutic agent paclitaxel was effective in inhibiting tumor growth	bind different epitopes of the C35 protein	specifically bind recombinant C35 protein in ELISA and Western Blot assays	specifically stain formalin fixed, paraffin embedded C35 positive tumors and cell lines	specific for an epitope within the C35 residues 48-104	–	–	–	–	–	–	–	–
B2	neither the 1F2 nor 1B3 administered individually with the chemotherapeutic agent paclitaxel was effective in inhibiting tumor growth	bind different epitopes of the C35 protein	specifically bind recombinant C35 protein in ELISA and Western Blot assays	–	specific for an epitope within C35 residues 105-115	–	–	–	–	–	–	–	–
B3	–	–	–	–	recognizes an epitope within amino acid residues 48 to 87 of C35; also recorded: specific for an epitope within amino acid residues 48 to 87 of C35	2.96e+08	284000	do not show any immunofluorescence staining	immunoprecipitated C35 protein	binds native C35 monomer in tumor cell lysate	binding is absent in the normal cell line	binds the rC35 monomer (16 kD), dimer (˜32 kD), and larger aggregates	show dose-dependent immunofluorescence
